Experimental findings from patent US20170101466A1 (published 2017) are described below.

The target in assay [1] is T1, soluble human BLyS (human, UniProt Q9Y275 134-285).
T1 construct: also called hBLyS; human BAFF (BLyS)
The assay is described as follows: blocking of biotinylated soluble hBLyS binding to immobilized mBR3; hBLyS/mBR3 receptor blocking assay; no blocking up to 100 nM.

Assay [2] deals with T1, soluble human BLyS. The experiment in a line: ELISA, soluble hBLyS; soluble hBLyS ELISA (weak, IC50 28 nM).
The target of assay [3] is T2, soluble mouse BLyS (mouse, UniProt Q9WU72 127-309).
T2 construct: europium-labelled in DELFIA; also called mBLyS; mouse BAFF (BLyS)
The assay is described as follows: ELISA, soluble mBLyS.

A further assay addresses T3, soluble cynomolgus BLyS (cynomolgus, UniProt A0A2K5V2X4 134-285).
T3 construct: Soluble form; also called cyBLyS; Soluble cyBLyS
The experiment in a line: ELISA, soluble cyBLyS. On the technique in general: An ELISA detects its analyte on a solid surface through an enzyme-linked reagent.

In assay [4] the target is T2, soluble mouse BLyS. The experiment in a line: Biacore. Background: Surface plasmon resonance follows binding to a sensor surface in real time, without labels.

B1: 4A2 IgG expressed in HEK293 cells (antibody, V domains shown)
VH: QVQLVQSGGGVVQPGRSLRLSCAASGFTFSSYGMHWVRQAPGKGLEWVAVISHDGSNKYYADSVKGRFTISRDNSKNTLYLQMNSLRAEDTAVYYCAKDRSYYDILTGYYIPYYYGMDVWGQGTTVTVSS
VL: QAVLTQPPSASGTPGQKVTISCSGSSSDIGSNNVNWYQQFPGTAPKLLIHSNNLRPSGVPVRFSGSKSGTSASLAISGLQSEDEADYYCSAWDDSVNGVAFGGGTKLTVLG
notes: IgG from HEK293-FreeStyle cells
On to B1, for which the IC50 – broadly, the concentration at which inhibition is half-maximal – was greater than 100 nM with soluble human BLyS [1], 28 nM with soluble human BLyS [2], 0.47 nM with soluble mouse BLyS [3] and 1.46 nM with soluble cynomolgus BLyS. Moreover, the equilibrium dissociation constant (Kd) (commonly the constant that tells how readily two partners part at equilibrium) in the assay with soluble mouse BLyS [4] is 0.0486 nM.
